The target of test [1] is T1, purified streptococcal antigen (SA) I/II (Streptococcus mutans, UniProt P23504 39-1532).
T1 construct: Purified antigen as coated on ELISA plates; also called SA 1/11; purified SA I/II
T1 sequence (looked up): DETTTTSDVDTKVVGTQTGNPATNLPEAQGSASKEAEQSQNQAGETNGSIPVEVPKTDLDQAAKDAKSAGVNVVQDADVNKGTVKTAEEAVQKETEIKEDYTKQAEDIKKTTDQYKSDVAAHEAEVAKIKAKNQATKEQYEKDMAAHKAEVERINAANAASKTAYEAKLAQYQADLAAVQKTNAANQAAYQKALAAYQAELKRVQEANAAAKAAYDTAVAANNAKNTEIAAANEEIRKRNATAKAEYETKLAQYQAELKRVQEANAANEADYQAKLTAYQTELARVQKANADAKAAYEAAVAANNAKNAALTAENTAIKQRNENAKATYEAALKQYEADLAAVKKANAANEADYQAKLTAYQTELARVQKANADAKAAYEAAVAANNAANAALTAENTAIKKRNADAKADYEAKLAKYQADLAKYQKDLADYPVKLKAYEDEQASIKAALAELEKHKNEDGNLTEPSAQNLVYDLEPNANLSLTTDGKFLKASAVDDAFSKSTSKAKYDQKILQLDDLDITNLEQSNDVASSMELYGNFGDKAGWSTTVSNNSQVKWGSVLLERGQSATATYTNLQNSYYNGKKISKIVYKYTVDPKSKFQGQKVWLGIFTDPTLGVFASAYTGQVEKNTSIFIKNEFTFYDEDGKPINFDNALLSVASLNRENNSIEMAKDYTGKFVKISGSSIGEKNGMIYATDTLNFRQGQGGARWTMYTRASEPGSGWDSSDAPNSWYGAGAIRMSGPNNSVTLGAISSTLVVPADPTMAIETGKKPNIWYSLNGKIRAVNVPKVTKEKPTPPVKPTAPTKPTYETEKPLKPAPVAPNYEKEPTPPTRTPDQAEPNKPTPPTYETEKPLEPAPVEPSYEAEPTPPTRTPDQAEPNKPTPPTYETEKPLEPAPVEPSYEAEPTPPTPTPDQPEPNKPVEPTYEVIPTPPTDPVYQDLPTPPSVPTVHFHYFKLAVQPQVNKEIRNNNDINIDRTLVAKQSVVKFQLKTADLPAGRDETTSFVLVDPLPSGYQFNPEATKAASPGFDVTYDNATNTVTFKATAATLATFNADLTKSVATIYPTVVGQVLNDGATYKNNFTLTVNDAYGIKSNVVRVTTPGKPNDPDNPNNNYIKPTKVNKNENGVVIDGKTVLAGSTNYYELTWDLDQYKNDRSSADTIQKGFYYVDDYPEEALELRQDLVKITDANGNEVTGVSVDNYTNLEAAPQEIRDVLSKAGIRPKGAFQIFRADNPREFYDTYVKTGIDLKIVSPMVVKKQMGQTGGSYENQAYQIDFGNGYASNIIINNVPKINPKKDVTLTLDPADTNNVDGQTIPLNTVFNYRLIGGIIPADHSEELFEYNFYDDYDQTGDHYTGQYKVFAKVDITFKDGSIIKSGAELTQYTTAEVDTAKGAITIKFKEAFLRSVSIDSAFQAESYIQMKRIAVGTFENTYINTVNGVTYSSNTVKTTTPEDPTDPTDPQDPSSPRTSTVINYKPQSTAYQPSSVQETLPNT
Put plainly: ELISA on SA I/II, plant extract.

The target in test [2] is T1, purified streptococcal antigen (SA) I/II. Put plainly: ELISA on purified SA I/II, plant extract. (In general: In an ELISA, binding on a coated surface is turned into a signal by an enzyme label.)

B1: mouse J chain expressed alone in plants (other, UniProt P01592 22-159, looked up)
chain: GDDEATILADNKCMCTRVTSRIIPSTEDPNEDIVERNIRIVVPLNNRENISDPTSPLRRNFVYHLSDVCKKCDPVEVELEDQVVTATQSNICNEDDGVPETCYMYDRNKCYTTMVPLRYHGETKMVQAALTPDSCYPD
notes: Tested as crude plant extract; also called plants expressing only J chain
On to B1, for which the binding result in test [1] is “no binding”.

B2: protection protein (amino acids 1-606 of rabbit polyimmunoglobulin receptor) expressed alone in plants (receptor)
chain: QSSLLGPSSIFGPGEVNVLEGDSVSITCYYPTTSVTRHSRKFWCREEESGRCVTLASTGYTSQEYSGRGKLTDFPDKGEFVVTVDQLTQNDSGSYKCGVGVNGRGLDFGVNVLVSQKPEPDDVVYKQYESYTVTITCPFTYATRQLKKSFYKVEDGELVLIIDSSSKEAKDPRYKGRITLQIQSTTAKEFTVTIKHLQLNDAGQYVCQSGSDPTAEEQNVDLRLLTPGLLYGNLGGSVTFECALDSEDANAVASLRQVRGGNVVIDSQGTIDPAFEGRILFTKAENGHFSVVIAGLRKEDTGNYLCGVQSNGQSGDGPTQLRQLFVNEEIDVSRSPPVLKGFPGGSVTIRCPYNPKRSDSHLQLYLWEGSQTRHLLVDSGEGLVQKDYTGRLALFEEPGNGTFSVVLNQLTAEDEGFYWCVSDDDESLTTSVKLQIVDGEPSPTIDKFTAVQGEPVEITCHFPCKYFSSEKYWCKWNDHGCEDLPTKLSSSGDLVKCNNNLVLTLTLDSVSEDDEGWYWCGAKDGHEFEEVAAVRVELTEPAKVAVEPAKVPVDPAKAAPAPAEEKAKARCPVPRRRQWYPLSRKLRTSCPEPRLLAEEVAVQSAE
notes: also called plants expressing only protection protein; free protection protein
Take B2: in test [2], the binding result is recorded as “no binding”.

The values above are taken from patent publication US20020159958A1 (REGENTS OF UNIVERSITY OF CALIFORNIA, published 2002).
